Laboratory results from patent US20200231671A1 (E R SQUIBB AND SONS L L C, published 2020).

T1: human LAG-3 (cell surface) (human, UniProt P18627 23-525)
T1 construct: whole, on cells; also called CHO-human LAG-3
T1 sequence (looked up): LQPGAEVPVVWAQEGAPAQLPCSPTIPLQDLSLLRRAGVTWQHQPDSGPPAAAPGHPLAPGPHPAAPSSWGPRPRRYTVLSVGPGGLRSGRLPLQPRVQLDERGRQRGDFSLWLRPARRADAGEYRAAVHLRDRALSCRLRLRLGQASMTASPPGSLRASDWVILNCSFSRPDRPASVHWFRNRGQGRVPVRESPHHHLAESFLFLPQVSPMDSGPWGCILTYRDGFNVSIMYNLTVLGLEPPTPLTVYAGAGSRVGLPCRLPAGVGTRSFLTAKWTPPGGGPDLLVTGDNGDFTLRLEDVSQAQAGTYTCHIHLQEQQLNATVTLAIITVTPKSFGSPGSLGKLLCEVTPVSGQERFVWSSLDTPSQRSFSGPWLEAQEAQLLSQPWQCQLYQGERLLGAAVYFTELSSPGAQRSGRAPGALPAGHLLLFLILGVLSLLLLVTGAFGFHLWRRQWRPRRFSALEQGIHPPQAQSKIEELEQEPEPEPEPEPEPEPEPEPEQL

T2: rhesus monkey LAG-3, clone pa23-5 (cell surface, CHO) (rhesus monkey, UniProt P18627 24-525 (human entry))
T2 construct: also called CHO-rhesus LAG3
T2 chain: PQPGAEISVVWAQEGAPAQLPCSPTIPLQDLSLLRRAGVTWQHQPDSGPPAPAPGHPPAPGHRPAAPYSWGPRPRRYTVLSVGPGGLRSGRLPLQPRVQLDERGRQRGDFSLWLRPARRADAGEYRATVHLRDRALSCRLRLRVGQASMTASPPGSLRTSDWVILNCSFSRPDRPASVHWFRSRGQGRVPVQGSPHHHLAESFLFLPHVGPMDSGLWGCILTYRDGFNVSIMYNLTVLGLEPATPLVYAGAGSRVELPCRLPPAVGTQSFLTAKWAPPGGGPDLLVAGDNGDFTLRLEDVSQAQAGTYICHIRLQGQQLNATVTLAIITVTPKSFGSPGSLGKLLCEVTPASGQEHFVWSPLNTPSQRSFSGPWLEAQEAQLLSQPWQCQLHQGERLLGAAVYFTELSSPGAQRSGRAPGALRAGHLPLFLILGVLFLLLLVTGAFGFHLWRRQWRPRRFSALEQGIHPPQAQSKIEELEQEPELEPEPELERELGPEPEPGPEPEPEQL


How the values were obtained:
[1] = molecular target: T1, human LAG-3 (cell surface); assay: flow cytometry, activated human CD4+ T cells
Method: To test the ability of the antibodies to bind to cell surface LAG-3 protein, the antibodies were incubated with a CHO cell line that had been transfected to express human LAG-3 on the cell surface. The 25F7, 26H10, 25E3, 8B7, 11F2 and 17E5 monoclonal antibodies were serially diluted with cold lx PFAE buffer (1×PBS+2% FBS, 0.02% sodium azide, 2 mM Na EDTA). For the binding reaction, 50 μl of diluted antibody solution was added to a 50 μl cell suspension containing 2×10⁵ cells and the mixture was incubated on ice for 30 minutes. The cells were then washed two times with 1×PFAE buffer. A 1:100 dilution of FITC-labeled goat anti-human kappa light chain antibody (Bethyl Laboratories, Inc., Cat. # A80-115F) was added and the mixture was incubated for 30 minutes at 4° C., followed by washing twice with cold 1×PFAE buffer. After the final wash, 150 μl of cold 1×PFAE containing 10 μg/mL propidium iodide (Roche Applied Science, Cat #1 348 639) was added to each solution and analysis of antibody binding was carried out by flow cytometry using a FACScalibur flow cytometer (BD Bioscience).
To test the ability of the antibodies to bind to native human LAG-3 on the surface of activated human T cells, resting CD4⁺ T cells were isolated from purified peripheral blood mononuclear cells and subjected to three days of stimulation with a combination of anti-CD3 and anti-CD28 antibodies affixed to polystyrene beads. The 25F7, 8B7 and 26H10 monoclonal antibodies were serially diluted with cold 1×PFAE buffer (1×PBS+2% FBS, 0.02% sodium azide, 2 mM Na EDTA). For the binding reaction, 50 μl of diluted antibody solution was mixed with 50 μl of PE-labeled anti-human CD4 (BD Bioscience, Cat # 555347). Activated T cells were processed by the same protocol described above. The analysis of antibody binding was conducted as described above.

[2] = molecular target: T2, rhesus monkey LAG-3, clone pa23-5 (cell …); assay: flow cytometry, CHO cells expressing rhesus LAG-3
Excerpt: The cDNA of clone pa23-5 was inserted into an expression construct, which was transfected into CHO-S suspension cells by nucleofection (Amaxa). Rhesus LAG-3 expression by sorted, selection drug-resistant clones was verified by FACS analysis. This clonal CHO cell line over-expressing rhesus LAG-3 was used in similar FACS assays to those described above to measure antibody cross reactivity to the monkey protein. Briefly, the 25F7, 8B7 and 26H10 monoclonal antibodies were serially diluted with cold 1×PFAE buffer (1×PBS+2% FBS, 0.02% sodium azide, 2 mM Na EDTA). For the binding reaction, 50 μl of diluted antibody solution was added to a 50 μl cell suspension containing 2×10⁵ cells and the mixture was incubated on ice for 30 minutes. The cells were processed by the same protocol described above. The analysis of antibody binding was conducted as described above.

| EC50 [1] [nM] | EC50 [2] [nM] | Binder |
| --- | --- | --- |
| 0.41 to 0.84 | 4.68 | 26H10 human monoclonal antibody (antibody, IgG1, V domains shown, also called 26H10-FITC) VH: QVQLVESGGGVVQPGRSLRLSCAASGFTFSSYGMHWVRQAPGKGLEWVAVIWYDGSNKYYADSVKGRFTISRDNSKNTLYLQMNSLRAEDTAVYYCAREWAVASWDYGMDVWGQGTTVTVSS VL: not shown |
| 0.27 to 0.45 | 22.7 | 25F7 human monoclonal antibody (antibody, IgG1, V domains shown, also called 25F7-FITC (IgG1 version)) VH: QVQLQQWGAGLLKPSETLSLTCAVYGGSFSDYYWNWIRQPPGKGLEWIGEINHNGNTNSNPSLKSRVTLSLDTSKNQFSLKLRSVTAADTAVYYCAFGYSDYEYNWFDPWGQGTLVTVSS VL: EIVLTQSPATLSLSPGERATLSCRASQSISSYLAWYQQKPGQAPRLLIYDASNRATGIPARFSGSGSGTDFTLTISSLEPEDFAVYYCQQRSNWPLTFGQGTNLEIK |
| 0.69 to 1.8 | 10 | 8B7 human monoclonal antibody (antibody, IgG4, V domains shown, also called 8B7-FITC) VH: QVQLQQWGAGLLKPSETLSLTCAVYGGSFSGYYWSWIRQPPGKGLEWIGEINHRGNTNCNPSLKSRVTISGDTSKKQFALKLNSVTAADTAVYYCARGYDILTGYYEDSWGPGTLVTVSS VL: EIVLTQSPATLSLSPGERATLSCRASQSVSSYLAWYQQKPGQAPRLLIYNASNRATGIPARFSGSGSGTDFTLTISSLEPEDFAVYYCQQRSNWPLTFGGGTKVEIK |
